Test [1] concerns the target T1, N-cadherin/Fc chimeric protein (human, UniProt P19022 160-724).
T1 construct: range 160-724; Bought from R&D Systems; also called N-cad/Fc; human N-cadherin/Fc chimeric protein; not shown: Fc region of human IgG1
T1 sequence (looked up): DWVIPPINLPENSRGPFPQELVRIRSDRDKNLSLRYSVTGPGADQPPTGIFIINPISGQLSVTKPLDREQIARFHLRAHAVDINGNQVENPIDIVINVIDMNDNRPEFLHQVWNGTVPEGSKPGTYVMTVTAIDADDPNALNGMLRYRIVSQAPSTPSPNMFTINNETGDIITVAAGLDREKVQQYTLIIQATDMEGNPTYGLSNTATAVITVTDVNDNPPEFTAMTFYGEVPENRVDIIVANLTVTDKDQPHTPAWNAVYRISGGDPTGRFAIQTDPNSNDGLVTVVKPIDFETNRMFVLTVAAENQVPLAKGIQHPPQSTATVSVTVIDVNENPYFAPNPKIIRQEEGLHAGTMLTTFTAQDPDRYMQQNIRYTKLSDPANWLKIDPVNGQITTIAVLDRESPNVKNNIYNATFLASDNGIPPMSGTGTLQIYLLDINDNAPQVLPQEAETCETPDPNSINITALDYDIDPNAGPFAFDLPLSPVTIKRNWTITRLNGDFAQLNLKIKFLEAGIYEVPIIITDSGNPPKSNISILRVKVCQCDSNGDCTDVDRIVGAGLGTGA
Nature of the test: phage ELISA, 1.2 mM calcium. How it is done:
The binding of each clone to the cadherin/Fc chimeric proteins was confirmed by ELISA. Wells of ProBind microtiter plates (Falcon) were coated with either N-cadherin/Fc or E-cadherin/Fc chimeric protein (100 ng/well) or human IgG1 (which contains the Fc fragment) (100 ng/well). After blocking the nonspecific sites with TBS containing 3% BSA and 1.2 mM CaCl₂ for 1 h at 37° C., phage clones (10⁹ pfu) diluted in TBST containing 3% BSA and 1.2 mM CaCl₂ (100 μl/well). Non-coated wells were also used to exclude any phage that bound to the plastic surface. After 1 h incubation at room temperature, wells were washed 3 times with TBST containing 3% BSA and 1.2 mM CaCl₂. M13 phage without any insert were used to control the non-specific binding of the phage itself to the target. Monoclonal anti-M13 antibody conjugated to horseradish peroxidase (Amersham Biosciences, Piscataway, N.J.) was diluted in TBST containing 3% BSA and 1.2 mM CaCl₂ (1:2,000) and added to each well (100 μl/well). After 1 h incubation at room temperature, wells were washed three times with TBST containing 3% BSA and 1.2 mM CaCl₂ and once with TBS containing 1.2 mM CaCl₂. Horseradish peroxidase substrate, TMB (Sigma), was added to each well (100 μl/well and after color development the reaction was stopped by addition of 100 μl 0.5 M sulphuric acid to each well. The intensity of the color was measured at 450 nm.

Test [2] deals with T2, E-cadherin/Fc chimeric protein (human, UniProt P12830 155-707).
T2 construct: range 155-707; Bought from R&D Systems; also called E-cad/Fc; human E-cadherin/Fc chimeric protein; not shown: Fc region of human IgG1
T2 sequence (looked up): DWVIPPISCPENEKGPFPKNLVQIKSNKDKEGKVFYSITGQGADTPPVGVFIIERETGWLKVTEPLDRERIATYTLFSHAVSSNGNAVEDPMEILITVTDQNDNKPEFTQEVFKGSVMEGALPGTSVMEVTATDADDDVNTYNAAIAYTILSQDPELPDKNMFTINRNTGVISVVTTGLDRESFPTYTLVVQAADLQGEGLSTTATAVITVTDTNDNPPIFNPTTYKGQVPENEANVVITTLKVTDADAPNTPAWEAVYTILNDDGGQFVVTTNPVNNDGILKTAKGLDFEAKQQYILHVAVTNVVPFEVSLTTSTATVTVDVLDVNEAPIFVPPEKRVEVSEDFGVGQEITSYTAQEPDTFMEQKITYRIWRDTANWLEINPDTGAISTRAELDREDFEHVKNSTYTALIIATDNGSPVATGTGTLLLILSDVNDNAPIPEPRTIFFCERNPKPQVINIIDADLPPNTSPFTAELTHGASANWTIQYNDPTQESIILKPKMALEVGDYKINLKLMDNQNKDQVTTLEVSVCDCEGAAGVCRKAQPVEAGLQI
As to the kind of experiment: phage ELISA, in the absence or presence of calcium. As for the experimental part: (§1) The phage clones shown to bind to the N-cadherin/Fc chimeric protein by ELISA were also evaluated for their ability to bind to E-cadherin/Fc and VE-cadherin/Fc chimeric proteins. The phage clones shown to bind to the E-cadherin/Fc chimeric protein by ELISA were also evaluated for their ability to bind to N-cadherin/Fc and VE-cadherin/Fc chimeric proteins. The same ELISA protocol described in the previous section was used to perform this evaluation with the exception that the wells were coated with either 100 ng N-cadherin/Fc, E-cadherin/Fc or VE-cadherin/Fc chimeric protein (R&D Systems, Minneapolis, Minn.).
(In general: ELISA stands for enzyme-linked immunosorbent assay.)

Test [3] has as its target T3, VE-cadherin/Fc chimeric protein (UniProt P33151 48-593).
T3 construct: Bought from R&D Systems; also called vascular endothelial (VE)-cadherin/Fc chimeric protein; not shown: Fc part not described
T3 sequence (looked up): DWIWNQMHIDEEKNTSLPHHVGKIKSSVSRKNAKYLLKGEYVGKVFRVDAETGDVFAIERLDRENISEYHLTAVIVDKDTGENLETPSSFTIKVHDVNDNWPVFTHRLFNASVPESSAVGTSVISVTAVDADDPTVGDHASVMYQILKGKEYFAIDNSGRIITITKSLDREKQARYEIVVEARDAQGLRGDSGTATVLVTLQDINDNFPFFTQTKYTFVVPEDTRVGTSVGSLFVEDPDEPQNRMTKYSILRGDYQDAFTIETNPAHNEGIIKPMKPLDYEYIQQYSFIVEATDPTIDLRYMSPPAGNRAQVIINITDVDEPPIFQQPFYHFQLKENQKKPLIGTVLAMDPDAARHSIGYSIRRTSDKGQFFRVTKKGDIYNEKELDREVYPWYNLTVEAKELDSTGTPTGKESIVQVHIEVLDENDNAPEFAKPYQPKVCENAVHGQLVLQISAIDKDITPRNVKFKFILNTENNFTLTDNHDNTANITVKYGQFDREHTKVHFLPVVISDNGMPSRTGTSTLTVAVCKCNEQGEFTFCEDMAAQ
Nature of the test: phage ELISA, in the absence or presence of calcium. As for the experimental part: as §1

Where no end group is shown, it is not given here.

B1: phage clone NoCa1 (peptide)
peptide: WYVCVGAHC
modifications: not fully specified; cysteine pairing not given here; also: displayed on M13 phage pIII
notes: whole phage in the assay
Consider B1, for which the binding result in test [1] is recorded as “binds”; in test [2], “no binding (tested: 10^9 pfu)”; in test [3], “no binding (tested: 10^9 pfu)”.

B2: phage clone NoCa11 (peptide)
peptide: WQVCVGAHC
modifications: not fully specified; cysteine pairing not given here; also: displayed on M13 phage pIII
notes: whole phage in the assay
Regarding B2, the binding result in test [1] is listed as “binds”; in test [2], “no binding (tested: 10^9 pfu)”; in test [3], “no binding (tested: 10^9 pfu)”.

The record behind these values is US20100240066A1 (MCGILL UNIVERSITY, published 2010).
